According to paper PMC8210318:

Legend:
[1] = target: T1, RPA heterotrimer (UniProt P27694+P15927+P35244); test: fluorescence anisotropy; conditions: EMSA: 10 mM Tris pH 7.5, 50 ug/ml BSA, 5% glycerol, 25 mM DTT, 37 C 10 min, 25 nM DNA, 5% TBE gel, anisotropy: same buffer, 30 C
[2] = target: T1, RPA heterotrimer; test: EMSA; conditions: 25 nM DNA, EMSA: 10 mM Tris pH 7.5, 50 ug/ml BSA, 5% glycerol, 25 mM DTT, 37 C 10 min, 5% TBE gel

T1 sequence (P27694 whole entry, chain 1 of 3): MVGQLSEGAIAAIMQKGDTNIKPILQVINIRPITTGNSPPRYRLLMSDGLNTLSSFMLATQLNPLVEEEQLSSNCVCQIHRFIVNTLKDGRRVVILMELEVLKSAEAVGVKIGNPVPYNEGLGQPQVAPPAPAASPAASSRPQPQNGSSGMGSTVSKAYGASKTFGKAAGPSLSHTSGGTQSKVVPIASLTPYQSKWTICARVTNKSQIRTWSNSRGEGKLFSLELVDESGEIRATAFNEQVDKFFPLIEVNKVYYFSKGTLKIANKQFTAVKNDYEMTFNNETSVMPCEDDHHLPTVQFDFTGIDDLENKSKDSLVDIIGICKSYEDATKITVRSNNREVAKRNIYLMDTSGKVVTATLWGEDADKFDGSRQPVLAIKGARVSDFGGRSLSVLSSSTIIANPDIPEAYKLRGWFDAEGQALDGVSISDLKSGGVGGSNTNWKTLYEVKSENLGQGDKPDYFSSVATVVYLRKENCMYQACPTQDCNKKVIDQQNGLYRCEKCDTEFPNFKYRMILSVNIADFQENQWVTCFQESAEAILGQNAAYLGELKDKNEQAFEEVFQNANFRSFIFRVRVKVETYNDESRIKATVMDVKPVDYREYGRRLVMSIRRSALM
T1 sequence (P15927 whole entry, chain 2 of 3): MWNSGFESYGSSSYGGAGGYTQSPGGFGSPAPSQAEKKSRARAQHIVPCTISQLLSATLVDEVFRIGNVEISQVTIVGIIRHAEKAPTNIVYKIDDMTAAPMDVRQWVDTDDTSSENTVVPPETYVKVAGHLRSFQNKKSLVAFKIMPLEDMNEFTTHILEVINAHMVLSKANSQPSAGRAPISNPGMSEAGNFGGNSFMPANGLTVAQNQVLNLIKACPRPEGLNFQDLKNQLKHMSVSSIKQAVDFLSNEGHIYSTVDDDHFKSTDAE
T1 sequence (P35244 whole entry, chain 3 of 3): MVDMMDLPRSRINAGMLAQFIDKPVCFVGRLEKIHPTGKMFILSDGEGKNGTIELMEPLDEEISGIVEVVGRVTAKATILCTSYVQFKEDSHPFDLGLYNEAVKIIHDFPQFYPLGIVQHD

| Sequence | Kd ([1]; with 500 nM BSA as control) [nM] | Kd ([1]; with 500 nM N-HelQ, which displaces RPA) [nM] | binding signal ([2]; 12.5 nM RPA, anisotropy: same buffer, 30 C) [% bound] | binding signal (% of bound DNA released) ([2]; N-HelQ titrated (up to 500 nM), anisotropy: same buffer …) |
| --- | --- | --- | --- | --- |
| GTCGGATCCTCTAGACAGCATCCATGATCACTGGCACTGGTAGAATTCGGC / CAACGTCATAGACGATTACATTGCTACATGGATGCTGTCTAGAGGATCCGA [fork-2 fluorescein] | 45.2 | 237 |  |  |
| GTCGGATCCTCTAGACAGCATCCATGATCACTGGCACTGGTAGAATTCGGC / CAACGTCATAGACGATTACATTGCTACATGGATGCTGTCTAGAGGATCCGA [fork-2] |  |  | 100 | 40 |
